Measured values taken from patent US20160136295A1, “BIOMARKERS FOR TREATMENT WITH ANTI-TUBULIN CHEMOTHERAPEUTIC COMPOUNDS” (GENENTECH, INC., priority 2012, published 2016).

Experiments:
Assay type in all cases: biochemical, human
[1] = system: Mcl-1 S121; assay: In vitro kinase reactions: percent phosphorylation of full-length recombinant Mcl-1 at S121; details: for Percent phosphorylation S121, AVE: average of INJ1 and INJ2; for Percent phosphorylation S121, INJ1: sample injection 1; for Percent phosphorylation S121, INJ2: sample injection 2
Experimental: (§1) To determine the suitability of residues in Mcl-1 as kinase substrates, 10 μM of Mcl-1 was incubated with selected kinase at enzyme concentrations between 25 and 100 nM. For these reactions the Mcl-1 was dialyzed into 20 mM Phosphate, 50 mM Tris pH 7.5 150 mM NaCl, 5 mM DTT and 0.5% CHAPS. The protein solution was further supplemented with MgCl2 to 10 mM and ATP to 1 mM prior to addition of kinase. Purified recombinant kinases were purchased from Invitrogen Co. (Carlsbad, Calif.).
(§2) 10 μl of each of the Mcl-1 kinase reactions (100 pmol) were loaded onto a 4-12% Bis-Tris gel for separation by SDS-PAGE after reduction. Mcl-1 bands were excised from the gel, dehydrated (50% acetonitrile in 50 mM ammonium bicarbonate then 100% acetonitrile washes), and incubated with 0.2 μg trypsin overnight at 37° C.
(§3) Samples were injected in duplicate via autosampler onto a nanoAcquity® UPLC (Waters, Milford, Mass.) and analyzed on-line via nanospray ionization into an LTQ-Orbitrap® mass spectrometer at a concentration of 300 fmol synthetic peptide mix per injection. Areas were integrated for the isotopic and kinase phosphorylated peptides, and compared to their non-phosphorylated peptide counterparts to obtain percent phosphorylation values.

[2] = system: Mcl-1 T92; assay: In vitro kinase reactions: percent phosphorylation of full-length recombinant Mcl-1 at T92; details: single kinase reactions, peak areas of 0 and 1P, triple charged state; for Percent phosphorylation T92, AVE: average; for Percent phosphorylation T92, INJ1: sample injection 1; for Percent phosphorylation T92, INJ2: sample injection 2
Experimental: as §1, §2, §3

[3] = system: Mcl-1 S159/T163; assay: In vitro kinase reactions: percent phosphorylation of full-length recombinant Mcl-1 at S159+T163; details: for Percent phosphorylation S159/T163, AVE: average; for Percent phosphorylation S159/T163, INJ1: sample injection 1; for Percent phosphorylation S159/T163, INJ2: sample injection 2
Experimental: as §1, §2, §3

[4] = system: Mcl-1 T163; assay: In vitro kinase reactions: percent phosphorylation of full-length recombinant Mcl-1 at T163; details: single kinase reactions; for Percent phosphorylation T163, AVE: average of INJ1 and INJ2; for Percent phosphorylation T163, INJ1: sample injection 1; for Percent phosphorylation T163, INJ2: sample injection 2
Experimental: as §1, §2, §3

[5] = % phos on S159+T163, CDK1 + kinase panel reactions
[6] = % phos on S159+T163, single kinase reactions

Row | Percent phosphorylation S121, AVE ([1]; CDK1 + kinase panel reactions) [%] | Percent phosphorylation S121, INJ1 ([1]; CDK1 + kinase panel reactions) [%] | Percent phosphorylation S121, INJ2 ([1]; CDK1 + kinase panel reactions) [%] | Percent phosphorylation S121, AVE ([1]; single kinase reactions) [%] | Percent phosphorylation S121, INJ1 ([1]; single kinase reactions) [%] | Percent phosphorylation S121, INJ2 ([1]; single kinase reactions) [%] | Percent phosphorylation T92, AVE [2] [%] | Percent phosphorylation T92, INJ1 [2] [%] | Percent phosphorylation T92, INJ2 [2] [%] | Percent phosphorylation S159/T163, AVE [3, 5] [%] | Percent phosphorylation S159/T163, INJ1 [3, 5] [%] | Percent phosphorylation S159/T163, INJ2 [3, 5] [%] | Percent phosphorylation S159/T163, AVE [3, 6] [%] | Percent phosphorylation S159/T163, INJ1 [3, 6] [%] | Percent phosphorylation S159/T163, INJ2 [3, 6] [%] | Percent phosphorylation T163, AVE [4] [%] | Percent phosphorylation T163, INJ1 [4] [%] | Percent phosphorylation T163, INJ2 [4] [%] | Molecule
1 | 32.85 | 32.82 | 32.88 | 13.14 | 11.61 | 14.67 | 9.35 | 10.29 | 8.41 | 4.10 | 3.86 | 4.33 | 16.83 | 16.73 | 16.92 | 43.90 | 45.09 | 42.70 | MAPK10: purified recombinant kinase purchased from Invitrogen (protein, UniProt P53779 1-464, looked up) Mitogen-activated protein …: MSLHFLYYCSEPTLDVKIAFCQGFDKQVDVSYIAKHYNMSKSKVDNQFYSVEVGDSTFTVLKRYQNLKPIGSGAQGIVCAAYDAVLDRNVAIKKLSRPFQNQTHAKRAYRELVLMKCVNHKNIISLLNVFTPQKTLEEFQDVYLVMELMDANLCQVIQMELDHERMSYLLYQMLCGIKHLHSAGIIHRDLKPSNIVVKSDCTLKILDFGLARTAGTSFMMTPYVVTRYYRAPEVILGMGYKENVDIWSVGCIMGEMVRHKILFPGRDYIDQWNKVIEQLGTPCPEFMKKLQPTVRNYVENRPKYAGLTFPKLFPDSLFPADSEHNKLKASQARDLLSKMLVIDPAKRISVDDALQHPYINVWYDPAEVEAPPPQIYDKQLDEREHTIEEWKELIYKEVMNSEEKTKNGVVKGQPSPSGAAVNSSESLPPSSSVNDISSMSTDQTLASDTDSSLEASAGPLGCCR
2 | 70.06 | 68.97 | 71.14 | 21.56 | 17.66 | 25.46 | 6.04 | 5.99 | 6.08 | 9.45 | 10.13 | 8.76 | 16.98 | 15.54 | 18.42 | 56.77 | 60.42 | 53.11 | MAPK8: purified recombinant kinase purchased from Invitrogen (protein, UniProt P45983 1-427, looked up) Mitogen-activated protein …: MSRSKRDNNFYSVEIGDSTFTVLKRYQNLKPIGSGAQGIVCAAYDAILERNVAIKKLSRPFQNQTHAKRAYRELVLMKCVNHKNIIGLLNVFTPQKSLEEFQDVYIVMELMDANLCQVIQMELDHERMSYLLYQMLCGIKHLHSAGIIHRDLKPSNIVVKSDCTLKILDFGLARTAGTSFMMTPYVVTRYYRAPEVILGMGYKENVDLWSVGCIMGEMVCHKILFPGRDYIDQWNKVIEQLGTPCPEFMKKLQPTVRTYVENRPKYAGYSFEKLFPDVLFPADSEHNKLKASQARDLLSKMLVIDASKRISVDEALQHPYINVWYDPSEAEAPPPKIPDKQLDEREHTIEEWKELIYKEVMDLEERTKNGVIRGQPSPLGAAVINGSQHPSSSSSVNDVSSMSTDPTLASDTDSSLEAAAGPLGCCR

Second part, the molecule before the results:

Row | Molecule | Percent phosphorylation S121, AVE ([1]; CDK1 + kinase panel reactions) [%] | Percent phosphorylation S121, INJ1 ([1]; CDK1 + kinase panel reactions) [%] | Percent phosphorylation S121, INJ2 ([1]; CDK1 + kinase panel reactions) [%] | Percent phosphorylation S121, AVE ([1]; single kinase reactions) [%] | Percent phosphorylation S121, INJ1 ([1]; single kinase reactions) [%] | Percent phosphorylation S121, INJ2 ([1]; single kinase reactions) [%] | Percent phosphorylation T92, AVE [2] [%] | Percent phosphorylation T92, INJ1 [2] [%] | Percent phosphorylation T92, INJ2 [2] [%] | Percent phosphorylation S159/T163, AVE [3, 5] [%] | Percent phosphorylation S159/T163, INJ1 [3, 5] [%] | Percent phosphorylation S159/T163, INJ2 [3, 5] [%] | Percent phosphorylation S159/T163, AVE [3, 6] [%] | Percent phosphorylation S159/T163, INJ1 [3, 6] [%] | Percent phosphorylation S159/T163, INJ2 [3, 6] [%] | Percent phosphorylation T163, AVE [4] [%] | Percent phosphorylation T163, INJ1 [4] [%] | Percent phosphorylation T163, INJ2 [4] [%]
3 | MAPK11: purified recombinant kinase purchased from Invitrogen (protein, UniProt Q15759 1-364, looked up) Mitogen-activated protein …: MSGPRAGFYRQELNKTVWEVPQRLQGLRPVGSGAYGSVCSAYDARLRQKVAVKKLSRPFQSLIHARRTYRELRLLKHLKHENVIGLLDVFTPATSIEDFSEVYLVTTLMGADLNNIVKCQALSDEHVQFLVYQLLRGLKYIHSAGIIHRDLKPSNVAVNEDCELRILDFGLARQADEEMTGYVATRWYRAPEIMLNWMHYNQTVDIWSVGCIMAELLQGKALFPGSDYIDQLKRIMEVVGTPSPEVLAKISSEHARTYIQSLPPMPQKDLSSIFRGANPLAIDLLGRMLVLDSDQRVSAAEALAHAYFSQYHDPEDEPEAEPYDESVEAKERTLEEWKELTYQEVLSFKPPEPPKPPGSLEIEQ | 10.11 | 10.45 | 9.76 | 5.66 | 5.84 | 5.48 | 3.27 | 2.59 | 3.95 | 0.94 | 1.15 | 0.73 | 2.56 | 3.06 | 2.06 | 51.87 | 53.70 | 50.04
4 | MAPK13: purified recombinant kinase purchased from Invitrogen (protein, UniProt O15264 1-365, looked up) Mitogen-activated protein …: MSLIRKKGFYKQDVNKTAWELPKTYVSPTHVGSGAYGSVCSAIDKRSGEKVAIKKLSRPFQSEIFAKRAYRELLLLKHMQHENVIGLLDVFTPASSLRNFYDFYLVMPFMQTDLQKIMGMEFSEEKIQYLVYQMLKGLKYIHSAGVVHRDLKPGNLAVNEDCELKILDFGLARHADAEMTGYVVTRWYRAPEVILSWMHYNQTVDIWSVGCIMAEMLTGKTLFKGKDYLDQLTQILKVTGVPGTEFVQKLNDKAAKSYIQSLPQTPRKDFTQLFPRASPQAADLLEKMLELDVDKRLTAAQALTHPFFEPFRDPEEETEAQQPFDDSLEHEKLTVDEWKQHIYKEIVNFSPIARKDSRRRSGMKL | 20.30 | 20.33 | 20.26 | 8.21 | 10.06 | 6.35 | 22.75 | 22.96 | 22.54 | 0.56 | 0.74 | 0.38 | 4.70 | 5.77 | 3.62 | 64.78 | 65.53 | 64.03
5 | MAPK12: purified recombinant kinase purchased from Invitrogen (protein, UniProt P53778 1-367, looked up) Mitogen-activated protein …: MSSPPPARSGFYRQEVTKTAWEVRAVYRDLQPVGSGAYGAVCSAVDGRTGAKVAIKKLYRPFQSELFAKRAYRELRLLKHMRHENVIGLLDVFTPDETLDDFTDFYLVMPFMGTDLGKLMKHEKLGEDRIQFLVYQMLKGLRYIHAAGIIHRDLKPGNLAVNEDCELKILDFGLARQADSEMTGYVVTRWYRAPEVILNWMRYTQTVDIWSVGCIMAEMITGKTLFKGSDHLDQLKEIMKVTGTPPAEFVQRLQSDEAKNYMKGLPELEKKDFASILTNASPLAVNLLEKMLVLDAEQRVTAGEALAHPYFESLHDTEDEPQVQKYDDSFDDVDRTLDEWKRVTYKEVLSFKPPRQLGARVSKETPL | 18.12 | 18.73 | 17.51 | 11.00 | 10.71 | 11.28 | 69.58 | 71.57 | 67.59 | 0.00 | 0.00 | 0.00 | 0.00 | 0.00 | 0.00 | 53.34 | 55.05 | 51.63
